According to patent US20110104140A1, “USE OF NON-CATALYTIC FORM OF HEPARANASE AND PEPTIDES THEREOF FOR REVERSING THE ANTI-COAGULANT EFFECTS OF HEPARINOIDS” (priority 2006, published 2011):
“Also recorded” adds a separate entry of the source. Blank lines part the entries; values can stand above or below the molecule they belong to.

Legend:
[1] = system: Factor Xa; assay: Factor Xa activity in plasma with heparin / LMWH (anti-Xa activity); format: biochemical, human; details: for Reversal of Factor Xa inhibitory effect of heparin: peptide, dose dependent, complete at 1 mg/ml, FIG. 6; for Reversal of heparin anti-Xa activity: increasing doses of heparanase proenzyme, in the presence of AT
Protocol: Heparin inhibits the activity of activated coagulation factor X (Xa). […] Abbreviations: act. (activity), plas. (plasma).
(§1) Coagulation Assays • aPTT-Automatic determination of activated partial thromboplastin time (aPTT) of samples was performed in duplicates, by mixing pooled normal plasma with aPTT reagent (FSL actin, Dade Behring). After exactly 10 min, the clotting time was determined on Sysmex CA1500 analyzer. • Xa activity—Photometric determination of anti-Xa activity was performed to evaluate the activity of LMWH in human plasma on Sysmex CA1500 analyzer, using the LMWH Kit (Chromogenics). • PT—Prothrombin time (PT) was determined using the Innovin reagent (Dade Behring) on Sysmex CA1500 analyzer. • Protein C—Protein C activity was determined by the Berichrom Protein C kit, and ATIII was measured by the chromogenic Berichrom Antithrombin III kit (both from Dade Behring). • Platelet aggregation—Platelet aggregation was measured on normal donor platelets utilizing the Payton Aggregocorder type aggregometer (Payton Associates). • Protein S—Free Protein S was measured with the Liatest kit (Diagnostica Stago). All coagulation assays were subjected to external quality control program (NEQUAS, Sheffield, UK).
In recent years LMWH became widely used anti-coagulants due to their prominent anti-coagulant activity, and improved pharmacokinetics compared with un-fractionated heparin. However, there is still no existing anti-dot to inhibit these clinically highly abundant anti-coagulants, in the case of urgent clinical needs. Such needs may occur during extensive bleedings (e.g. brain) caused by LMWH overdose, or un-controlled bleedings in LMWH treated individuals due to other medical causes. Therefore, the effects of heparanase pro-enzyme on the anti-coagulant activities of heparinoids, was next tested by the inventors. […] Similar effects of heparanase were observed on plasma treated with unfractionated heparin (not shown).

[2] = target: T1, heparanase (Homo sapiens, UniProt Q9Y251); details: previously shown, WO 2005/071070; cited from earlier work
T1 sequence (Q9Y251 158-543 limits assumed): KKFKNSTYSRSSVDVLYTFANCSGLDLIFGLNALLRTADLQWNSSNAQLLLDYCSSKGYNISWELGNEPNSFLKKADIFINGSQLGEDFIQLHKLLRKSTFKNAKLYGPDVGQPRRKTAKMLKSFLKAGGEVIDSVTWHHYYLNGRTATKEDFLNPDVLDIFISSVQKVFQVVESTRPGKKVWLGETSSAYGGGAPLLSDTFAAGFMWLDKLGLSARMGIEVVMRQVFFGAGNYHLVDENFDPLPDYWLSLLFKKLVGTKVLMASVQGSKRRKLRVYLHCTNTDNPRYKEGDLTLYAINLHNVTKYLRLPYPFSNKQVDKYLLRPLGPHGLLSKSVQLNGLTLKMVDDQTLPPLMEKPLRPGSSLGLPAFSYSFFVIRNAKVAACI

[3] = system: heparin anti-coagulant effects on the aPTT response; assay: aPTT assay in normal plasma with heparin; format: biochemical
Protocol: In the aPTT assay, clot is generated within normal plasma by the intrinsic coagulation pathway. […] Abbreviations: cont. (control), N. coag. (No coagulation).
as §1
The extent of blood coagulation responses requires the balance by anticoagulant components in the microenvironment of the endothelium, represented by cell surface HSPG and associated coagulation inhibitors. Heparanase, which is released from platelets upon activation may function as a physiological procoagulant. […] Two coagulation assays are affected by heparinoids: activated partial thromboplastin time (aPTT) which measures the intrinsic coagulation pathway, and thrombin time (TT) which measures the thrombin-mediated conversion of fibrinogen to fibrin. As illustrated by FIG. 1, in both cases, heparin forms a ternary complex with the natural thrombin inhibitor antithrombin III (ATIII) and thrombin, resulting in thrombin inactivation. […]

[4] = system: heparin anti-coagulant effects on thrombin activity; assay: Thrombin time assay (TTA) in normal plasma with heparin; format: biochemical; details: FIG. 3
Description: In the thrombin time assay (TTA), clot is generated within normal plasma. […] Abbreviations: cont. (control), sec. (seconds), N. coag. (No coagulation).
The extent of blood coagulation responses requires the balance by anticoagulant components in the microenvironment of the endothelium, represented by cell surface HSPG and associated coagulation inhibitors. Heparanase, which is released from platelets upon activation may function as a physiological procoagulant. […] Two coagulation assays are affected by heparinoids: activated partial thromboplastin time (aPTT) which measures the intrinsic coagulation pathway, and thrombin time (TT) which measures the thrombin-mediated conversion of fibrinogen to fibrin. As illustrated by FIG. 1, in both cases, heparin forms a ternary complex with the natural thrombin inhibitor antithrombin III (ATIII) and thrombin, resulting in thrombin inactivation. […] The inventors therefore next examined the effect of heparanase on the heparin induced reduction of both, aPTT and TT responses.

[5] = system: extrinsic coagulation pathway; assay: Prothrombin time (PT); format: biochemical; details: for Effect on PT response: not shown
Protocol: as §1
(§2) To examine the possible involvement of heparanase in the coagulation process, variety of coagulation tests including activated […] (aPTT, testing the intrinsic coagulation pathway), prothrombin time (PT, testing the extrinsic coagulation pathway), thrombin time (TT, testing thrombin mediated fibrin generation), as well as protein C and protein S (both coagulation inhibitors) were performed by the inventors.

[6] = target: T2, Protein C (Homo sapiens, UniProt P04070); assay: Protein C activity (Berichrom Protein C kit); format: biochemical; details: Heparanase 10 μg/ml; normal range 75-151%
T2 construct: from tissue; host or cells: normal plasma
Protocol: as §1

[7] = target: T3, Antithrombin III (Homo sapiens, UniProt P01008); assay: Antithrombin III (chromogenic Berichrom Antithrombin III kit); format: biochemical; details: Heparanase 10 μg/ml; normal range 74-114%
T3 construct: from tissue; host or cells: normal plasma
Protocol: as §1

[8] = target: T4, Protein S (Homo sapiens, UniProt P07225); assay: Protein S activity (Liatest kit); format: biochemical; details: Heparanase 10 μg/ml; normal range 54-138%
T4 construct: from tissue; host or cells: normal plasma
T4 sequence (P07225 42-676): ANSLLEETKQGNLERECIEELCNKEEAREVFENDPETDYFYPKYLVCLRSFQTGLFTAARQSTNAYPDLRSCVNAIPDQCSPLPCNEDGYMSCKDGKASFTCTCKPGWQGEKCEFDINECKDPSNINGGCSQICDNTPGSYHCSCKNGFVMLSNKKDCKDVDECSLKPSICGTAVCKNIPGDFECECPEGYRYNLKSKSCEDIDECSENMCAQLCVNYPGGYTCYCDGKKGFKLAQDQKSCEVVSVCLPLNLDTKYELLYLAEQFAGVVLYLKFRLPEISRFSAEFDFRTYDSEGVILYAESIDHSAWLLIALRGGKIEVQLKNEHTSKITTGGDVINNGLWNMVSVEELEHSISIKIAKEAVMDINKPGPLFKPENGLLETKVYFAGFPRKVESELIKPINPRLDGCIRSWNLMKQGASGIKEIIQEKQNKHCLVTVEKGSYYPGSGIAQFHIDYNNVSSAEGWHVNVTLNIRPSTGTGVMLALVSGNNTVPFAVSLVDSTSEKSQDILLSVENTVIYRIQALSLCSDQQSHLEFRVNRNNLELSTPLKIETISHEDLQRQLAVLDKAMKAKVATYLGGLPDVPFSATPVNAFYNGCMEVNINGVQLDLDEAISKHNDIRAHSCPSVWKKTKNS
Protocol: as §1

[9] = system: thrombin mediated fibrin generation; assay: Thrombin time (TT), direct effect; format: biochemical; details: Heparanase 10 μg/ml; normal range 14-21 sec
Description: Another test may be the Thrombin Time (TT) assay which reflects the time taken for a plasma sample to clot on addition of thrombin. The test is essentially a measure of fibrinogen to fibrin conversion and the factors affecting this terminal stage of the coagulation system.
as §2

[10] = system: normal donor platelets; assay: Platelet aggregation stimulated by mediators (ADP, collagen, thrombin); format: cell-based; details: Heparanase 10 μg/ml
Protocol: as §1
The effects of heparanase on platelet aggregation stimulated by a variety of mediators (e.g. ADP, collagen, thrombin), was next tested.

[11] = system: intrinsic coagulation pathway; assay: Activated partial thromboplastin time (aPTT), direct effect; format: biochemical; details: Heparanase 10 μg/ml; normal range 25-34 sec
Protocol: as §1, with “UK). […]” for “UK).”

[12] = target: T5, Factor Xa (Bos taurus, UniProt P00743); assay: Factor Xa activity, direct effect; format: biochemical, human; details: Heparanase 10 μg/ml, no heparinoid, normal value 100%
T5 construct: purchased Chromogenics
Protocol: as §1

[13] = system: Factor Xa; assay: Factor Xa activity ex vivo in plasma of LMWH-treated patients; format: biochemical, human; details: for Factor Xa activity in LMWH-treated patient plasma: plasma of twelve LMWH-treated patients, measured within 5 min, recombinant pro-heparanase, FIG. 5A
Protocol: FIG. 5A. Heparanase pro-enzyme was added to plasma derived from twelve independent LMWH-treated patients. Factor Xa activity was then measured, within 5 min. Each sample was measured in the absence (open bars) or presence (filled bars) of […] recombinant pro-heparanase. Each measurement was performed in duplicates (the average of each duplicate is shown, with differences between measurements <10%).
FIG. 5B. Summary of the effect of pro-heparanase on Factor Xa activity in the presence of heparin treated plasma, and the 12 LMWH-treated patient derived plasma samples (average±S.D.). Abbreviations: act. (activity), pat. (patient), pla. (plasma) cont. (control).
In order to assess possible clinical effects of heparanase pro-enzyme as an anti-dot to LMWH, heparanase pro-enzyme effect on Factor Xa activity ex vivo, was next tested in plasma derived from patients treated with LMWH, which were incubated with 10 •g/ml heparanase proenzyme. […] Thus, heparanase pro-enzyme reduced FXa inhibitory effects of LMWH in individual patient plasma samples, even at high levels of LMWH. Overall, the level of FXa inhibitory activity of LMWH in treated patients was reduced approximately by 50% (FIG. 5B).

T5 sequence (P00743 234-492 limits assumed): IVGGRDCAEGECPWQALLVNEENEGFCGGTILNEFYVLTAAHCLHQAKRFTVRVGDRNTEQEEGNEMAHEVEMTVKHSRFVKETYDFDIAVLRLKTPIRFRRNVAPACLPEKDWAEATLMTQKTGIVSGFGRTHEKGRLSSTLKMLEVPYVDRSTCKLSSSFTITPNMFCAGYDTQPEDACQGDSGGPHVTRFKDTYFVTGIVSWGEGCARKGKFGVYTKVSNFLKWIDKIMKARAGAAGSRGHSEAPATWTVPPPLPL
T5 sequence (P00743 41-180 limits assumed): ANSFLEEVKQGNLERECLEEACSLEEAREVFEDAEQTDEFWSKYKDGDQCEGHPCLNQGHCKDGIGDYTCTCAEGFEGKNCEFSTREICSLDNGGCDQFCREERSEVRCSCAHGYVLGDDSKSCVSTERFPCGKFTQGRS
T3 sequence (P01008 33-464): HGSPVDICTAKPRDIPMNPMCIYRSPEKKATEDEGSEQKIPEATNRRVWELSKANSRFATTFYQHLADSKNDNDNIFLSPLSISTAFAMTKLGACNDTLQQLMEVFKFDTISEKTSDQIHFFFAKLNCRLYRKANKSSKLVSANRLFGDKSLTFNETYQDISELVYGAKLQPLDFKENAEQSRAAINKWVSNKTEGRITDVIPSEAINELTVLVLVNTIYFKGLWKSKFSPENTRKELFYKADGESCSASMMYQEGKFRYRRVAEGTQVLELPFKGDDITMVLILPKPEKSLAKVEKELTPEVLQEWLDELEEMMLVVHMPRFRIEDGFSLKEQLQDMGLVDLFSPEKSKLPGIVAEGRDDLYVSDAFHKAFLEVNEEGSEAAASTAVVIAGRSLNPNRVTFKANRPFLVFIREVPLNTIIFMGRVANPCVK
T2 sequence (P04070 19-461 limits assumed): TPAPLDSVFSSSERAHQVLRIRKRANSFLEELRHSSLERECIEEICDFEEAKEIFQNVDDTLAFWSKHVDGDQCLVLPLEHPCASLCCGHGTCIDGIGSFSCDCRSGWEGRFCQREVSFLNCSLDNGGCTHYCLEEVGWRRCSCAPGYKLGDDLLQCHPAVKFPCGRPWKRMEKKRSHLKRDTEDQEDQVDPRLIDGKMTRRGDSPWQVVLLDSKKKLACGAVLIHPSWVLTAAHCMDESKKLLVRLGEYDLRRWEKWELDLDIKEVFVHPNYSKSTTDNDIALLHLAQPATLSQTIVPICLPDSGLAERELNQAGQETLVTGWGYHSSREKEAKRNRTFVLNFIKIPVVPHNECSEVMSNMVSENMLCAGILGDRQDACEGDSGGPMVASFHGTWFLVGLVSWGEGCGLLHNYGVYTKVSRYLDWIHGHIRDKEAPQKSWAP

Molecule: Enoxaparin [low molecular weight heparin, reference compound]
Effect of heparinoid on Factor Xa activity ([1]; FIG. 4): reduces significantly

Molecule: Lys158-Asp171 heparin-binding peptide: fourteen amino acid peptide of residues Lys158-Asp171 of human heparanase, heparin-binding domain, SEQ ID NO: 1 (KKFKNSTYSRSSVD; listed as Homo sapiens)
Reversal of Factor Xa inhibitory effect of LMWH ([1]; peptide 1 mg/ml, FIG. 7): completely reverse
Reversal of Factor Xa inhibitory effect of UFH ([1]; peptide 1 mg/ml, FIG. 7): completely reverse
Reversal of Factor Xa inhibitory effect of LMWH ([1]; peptide 1 mg/ml, FIG. 7, listed as Lys158-Asp171 heparin binding (HB) peptide): abolished
Reversal of Factor Xa inhibitory effect of heparin [1]: completely reverse
Reversal of Factor Xa inhibitory effect of heparin ([1]; listed as Lys158-Asp171 heparin binding (HB) peptide): abolished the FXa inhibitory effects of heparin
Inhibition of heparanase enzymatic activity [2]: inhibited heparanase enzymatic activity in a dose-responsive manner

Molecule: heparin [reference compound]
Inhibition of clot formation in aPTT assay ([3]; 1 u/ml heparin, normal plasma, FIG. 2): complete coagulation inhibition
Inhibition of clot formation in thrombin time assay ([4]; 0.5 u/ml heparin): complete coagulation inhibition
Effect on PT response [5]: neither heparin nor heparanase pro-enzyme affected

Protein C-activity [6]: 111%
Antithrombin III [7]: 103%
Protein S-activity [8]: 105%
Factor Xa-activity [12]: 102%
Factor Xa-activity ([12]; listed as heparanase proenzyme): had no effect
B1: Heparanase pro-enzyme: latent 65 kDa human heparanase protein with Myc and His tags, purified from conditioned medium of CHO cells (protein, UniProt Q9Y251 36-543, looked up)
pro-form: QDVVDLDFFTQEPLHLVSPSFLSVTIDANLATDPRFLILLGSPKLRTLARGLSPAYLRFGGTKTDFLIFDPKKESTFEERSYWQSQVNQDICKYGSIPPDVEEKLRLEWPYQEQLLLREHYQKKFKNSTYSRSSVDVLYTFANCSGLDLIFGLNALLRTADLQWNSSNAQLLLDYCSSKGYNISWELGNEPNSFLKKADIFINGSQLGEDFIQLHKLLRKSTFKNAKLYGPDVGQPRRKTAKMLKSFLKAGGEVIDSVTWHHYYLNGRTATKEDFLNPDVLDIFISSVQKVFQVVESTRPGKKVWLGETSSAYGGGAPLLSDTFAAGFMWLDKLGLSARMGIEVVMRQVFFGAGNYHLVDENFDPLPDYWLSLLFKKLVGTKVLMASVQGSKRRKLRVYLHCTNTDNPRYKEGDLTLYAINLHNVTKYLRLPYPFSNKQVDKYLLRPLGPHGLLSKSVQLNGLTLKMVDDQTLPPLMEKPLRPGSSLGLPAFSYSFFVIRNAKVAACI
modifications: pro-form Myc and His tags
notes: latent 65 kDa human heparanase protein with Myc and His tags, purified from conditioned medium of CHO cells
Pro-coagulant effects at low concentration ([3]; heparanase concentrations of less then 5 μg/ml, not shown, assay not specified): no pro-coagulant effects
Reversal of heparin anti-coagulant effects on the aPTT response ([3]; normal plasma, neutral pH, FIG. 2): significantly reversed
Thrombin time (TT) [9]: 17.3 s
Platelet aggregation [10]: No effects of heparanase
Reversal of heparin anti-coagulant effects on thrombin time [4]: significantly prevented; also recorded: significantly reversed
Activated partial pro-thrombin time (aPTT) [11]: 29.4 s
Prothrombin time (PT) ([5]; Heparanase 10 μg/ml, normal range 10.03-12.43 sec, single representative experiment): 10.6 s
Effect on PT response [5]: neither heparin nor heparanase pro-enzyme affected
Reversal of heparin anti-Xa activity ([1]; FIG. 4): restoring Xa activity to normal levels
Reversal of heparin anti-Xa activity ([1]; FIG. 4, listed as heparanase proenzyme): restoring FXa activity to the normal level
Reduction of FXa inhibitory activity of LMWH in treated patients ([13]; 10 •g/ml heparanase proenzyme, overall of 12 patients, FIG. 5B): ~50%
Factor Xa activity in LMWH-treated patient plasma [13]: significant elevation
Factor Xa activity in LMWH-treated patient plasma ([13]; listed as heparanase pro-enzyme): elevated significantly
